The record followed here is patent US20260347496 (published 2026).

Where “and” joins values, the source holds several entries; their conditions need not be identical. Equal entries are not always repeated.

This test has as its target CD24(27-56aa)-GST NEOX-4 (human). Put plainly: ELISA.

CD24(27-56aa)-GST NEOX-4 (human), sequence (chain, as listed by the source): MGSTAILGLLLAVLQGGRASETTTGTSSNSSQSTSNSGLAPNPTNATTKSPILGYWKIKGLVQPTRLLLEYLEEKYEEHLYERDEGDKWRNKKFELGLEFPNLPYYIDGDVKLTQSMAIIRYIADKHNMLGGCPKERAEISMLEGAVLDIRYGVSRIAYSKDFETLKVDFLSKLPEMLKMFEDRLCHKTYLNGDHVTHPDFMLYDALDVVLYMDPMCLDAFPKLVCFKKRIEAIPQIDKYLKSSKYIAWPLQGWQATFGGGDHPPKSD

B1: huG14-121 (antibody, V domains shown)
VH: EVQLVESGGGLVKPGGSLRLSCAASGLTFSNYWGNWVRQAPGKGLEWVALIRLYSDNYAIHYAESVKGRFTISRDDSKSTVYLQMNSLKTEDTAVYYCTTGTDYWGQGTTVTVSS
VL: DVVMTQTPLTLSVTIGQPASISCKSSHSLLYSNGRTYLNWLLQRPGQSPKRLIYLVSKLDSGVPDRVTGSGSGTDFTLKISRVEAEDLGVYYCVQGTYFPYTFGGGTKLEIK
Consider B1, for which the EC50 (as a rule, the concentration giving half of the maximal effect) is 7.37 ng/mL and 7.04 ng/mL.

B2: huG14-127 (antibody, V domains shown)
VH: EVQLVESGGGLVKPGGSLRLSCAASGLTFSNYWMNWVRQAPGKGLEWVALIRLYSDNYAIHYAESVKGRFTISRDDSKSTVYLQMNSLKTEDTAVYYCTTGTDNWGQGTTVTVSS
VL: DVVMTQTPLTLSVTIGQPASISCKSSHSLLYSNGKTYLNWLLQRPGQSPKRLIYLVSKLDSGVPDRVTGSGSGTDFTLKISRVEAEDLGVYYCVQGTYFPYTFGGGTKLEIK
On to B2, for which a half-maximal effect (EC50) was put at 2.97 ng/mL.

B3: huG14-120 (antibody, V domains shown)
VH: EVQLVESGGGLVKPGGSLRLSCAASGLTFSNYWGNWVRQAPGKGLEWVALIRLYSDNYAIHYAESVKGRFTISRDDSKSTVYLQMNSLKTEDTAVYYCTTGTDYWGQGTTVTVSS
VL: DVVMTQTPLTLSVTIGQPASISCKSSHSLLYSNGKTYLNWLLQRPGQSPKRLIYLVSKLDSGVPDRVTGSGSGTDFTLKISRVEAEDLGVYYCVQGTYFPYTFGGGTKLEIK
The molecule B3 came in with an EC50 of 6.23 ng/mL.

B4: huG14-116 (antibody, V domains shown)
VH: EVQLVESGGGLVKPGGSLRLSCAASGLTFSNYWMNWVRQAPGKGLEWVALIRLYSDNYAIHYAESVKGRFTISRDDSKSTVYLQMNSLKTEDTAVYYCTTGTDYWGQGTTVTVSS
VL: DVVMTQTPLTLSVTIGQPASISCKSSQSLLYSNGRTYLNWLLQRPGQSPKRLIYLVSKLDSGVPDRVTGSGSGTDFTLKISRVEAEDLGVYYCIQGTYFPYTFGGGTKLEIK
The molecule B4 had an EC50 of 11.2 ng/mL.

B5: huG14-117 (antibody, V domains shown)
VH: EVQLVESGGGLVKPGGSLRLSCAASGLTFSNYWMNWVRQAPGKGLEWVALIRLYSDNYAIHYAESVKGRFTISRDDSKSTVYLQMNSLKTEDTAVYYCTTGTDYWGQGTTVTVSS
VL: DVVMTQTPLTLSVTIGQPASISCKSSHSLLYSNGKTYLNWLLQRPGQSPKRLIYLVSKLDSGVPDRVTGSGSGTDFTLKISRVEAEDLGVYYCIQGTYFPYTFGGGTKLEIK
Regarding B5, the concentration giving a half-maximal response (EC50) amounted to 7.27 ng/mL.

B6: huG14-128 (antibody, V domains shown)
VH: EVQLVESGGGLVKPGGSLRLSCAASGLTFSNYWMNWVRQAPGKGLEWVALIRLYSDNYAIHYAESVKGRFTISRDDSKSTVYLQMNSLKTEDTAVYYCTTGTDNWGQGTTVTVSS
VL: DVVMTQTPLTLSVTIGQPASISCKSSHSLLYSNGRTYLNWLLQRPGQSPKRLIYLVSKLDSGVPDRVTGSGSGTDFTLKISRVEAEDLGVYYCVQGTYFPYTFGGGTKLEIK
The molecule B6 yielded a half-maximal effective concentration (EC50) of 4.12 ng/mL.

B7: huG14-136 (antibody, V domains shown)
VH: EVQLVESGGGLVKPGGSLRLSCAASGLTFSNYWGNWVRQAPGKGLEWVALIRLYSDNYAIHYAESVKGRFTISRDDSKSTVYLQMNSLKTEDTAVYYCTTGTDNWGQGTTVTVSS
VL: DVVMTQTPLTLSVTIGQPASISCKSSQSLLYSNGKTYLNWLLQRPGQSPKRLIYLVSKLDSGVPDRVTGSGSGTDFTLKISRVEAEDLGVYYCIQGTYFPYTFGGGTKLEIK
B7 returned a half-maximal effective concentration (EC50) of 4.05 ng/mL.

B8: huG14-138 (antibody, V domains shown)
VH: EVQLVESGGGLVKPGGSLRLSCAASGLTFSNYWGNWVRQAPGKGLEWVALIRLYSDNYAIHYAESVKGRFTISRDDSKSTVYLQMNSLKTEDTAVYYCTTGTDNWGQGTTVTVSS
VL: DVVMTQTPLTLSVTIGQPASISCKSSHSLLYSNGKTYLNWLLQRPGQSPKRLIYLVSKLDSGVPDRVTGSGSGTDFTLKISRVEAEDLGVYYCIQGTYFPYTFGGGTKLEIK
In the case of B8, the midpoint of the response, the EC50, lay at 3.28 ng/mL.

B9: huG14-115 (antibody, V domains shown)
VH: EVQLVESGGGLVKPGGSLRLSCAASGLTFSNYWMNWVRQAPGKGLEWVALIRLYSDNYAIHYAESVKGRFTISRDDSKSTVYLQMNSLKTEDTAVYYCTTGTDYWGQGTTVTVSS
VL: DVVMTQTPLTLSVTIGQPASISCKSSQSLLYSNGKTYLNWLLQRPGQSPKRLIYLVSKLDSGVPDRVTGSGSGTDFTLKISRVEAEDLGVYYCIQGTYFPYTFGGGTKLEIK
As for B9, it took 12.9 ng/mL to reach a half-maximal effect (EC50).

B10: huG14-113 (antibody, V domains shown)
VH: EVQLVESGGGLVKPGGSLRLSCAASGLTFSNYWMNWVRQAPGKGLEWVALIRLYSDNYAIHYAESVKGRFTISRDDSKSTVYLQMNSLKTEDTAVYYCTTGTDYWGQGTTVTVSS
VL: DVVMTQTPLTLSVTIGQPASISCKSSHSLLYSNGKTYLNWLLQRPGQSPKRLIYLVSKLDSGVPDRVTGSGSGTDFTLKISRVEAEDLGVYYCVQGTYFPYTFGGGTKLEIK
As to B10, the EC50 was 11.9 ng/mL.

B11: huG14-133 (antibody, V domains shown)
VH: EVQLVESGGGLVKPGGSLRLSCAASGLTFSNYWGNWVRQAPGKGLEWVALIRLYSDNYAIHYAESVKGRFTISRDDSKSTVYLQMNSLKTEDTAVYYCTTGTDNWGQGTTVTVSS
VL: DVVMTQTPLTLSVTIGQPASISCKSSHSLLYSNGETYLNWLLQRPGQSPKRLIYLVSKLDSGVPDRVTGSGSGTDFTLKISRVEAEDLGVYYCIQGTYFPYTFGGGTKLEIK
As to B11, the concentration for a half-maximal effect (EC50) turned out to be 5.66 ng/mL.

B12: huG14-112 (antibody, V domains shown)
VH: EVQLVESGGGLVKPGGSLRLSCAASGLTFSNYWMNWVRQAPGKGLEWVALIRLYSDNYAIHYAESVKGRFTISRDDSKSTVYLQMNSLKTEDTAVYYCTTGTDYWGQGTTVTVSS
VL: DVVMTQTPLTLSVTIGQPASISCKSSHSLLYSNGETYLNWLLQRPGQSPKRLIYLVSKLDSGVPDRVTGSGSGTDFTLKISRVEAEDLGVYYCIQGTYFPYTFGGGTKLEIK
B12 had a half-maximal effective concentration (EC50) of 12.1 ng/mL.

B13: huG14-114 (antibody, V domains shown)
VH: EVQLVESGGGLVKPGGSLRLSCAASGLTFSNYWMNWVRQAPGKGLEWVALIRLYSDNYAIHYAESVKGRFTISRDDSKSTVYLQMNSLKTEDTAVYYCTTGTDYWGQGTTVTVSS
VL: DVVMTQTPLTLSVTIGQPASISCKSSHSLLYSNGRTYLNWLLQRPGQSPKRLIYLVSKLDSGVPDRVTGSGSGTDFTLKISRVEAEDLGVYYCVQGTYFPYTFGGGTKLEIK
As to B13, a half-maximal effect (EC50) was put at 10.4 ng/mL.
